In this test the target is His-Tagged rhFc(gamma) receptor I (recombinant human Fc(gamma)R-I; Acro Biosystems, catalog# FCA-H52H1) (human). In words: ELISA, control IgG coated, His-tagged rhFc(gamma)RI in solution, anti-His-HRP.
Sequence of His-Tagged rhFc(gamma) receptor I (recombinant human Fc(gamma)R-I; Acro Biosystems, catalog# FCA-H52H1) (human) (P12314 16-292): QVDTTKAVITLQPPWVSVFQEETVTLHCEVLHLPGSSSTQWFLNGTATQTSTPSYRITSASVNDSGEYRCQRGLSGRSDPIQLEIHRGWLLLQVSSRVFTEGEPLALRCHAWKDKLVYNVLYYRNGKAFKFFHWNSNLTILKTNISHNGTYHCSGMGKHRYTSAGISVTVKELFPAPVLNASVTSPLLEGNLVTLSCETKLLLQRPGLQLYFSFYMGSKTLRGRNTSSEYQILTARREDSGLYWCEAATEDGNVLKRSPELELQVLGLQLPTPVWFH

In the case of “Dog IgG, Control Rockland-Inc, Cat# 004-0102-005 (antibody)”, the OD450 at 222 ng/ml Fc(gamma) RI was 0.686 OD450.

The values are drawn from patent US20260035433A1.
